According to the supplement of paper PMC10724198:
± gives the standard deviation of the averaged measurements.

Test system: Saccharomyces cerevisiae
Test: protein stability index of tFT-peptide fusion (C-terminal peptide) (PSI (0-1 scale)); higher = more stable (slower turnover)
Settings: genetic background: wild type; temperature: 30 C
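Further: PSI is a weighted mean of sequencing reads over stability bins, variants kept only with over 10 reads, mCherry proximal and sfGFP distal, peptide attached via GGGS linker.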

Row | Sequence | protein stability index
1 | GDEDVSWLVFMG | 0.762 ± 0.024
2 | LPPCSPLIFYFH | 0.636 ± 0.032
3 | VCSGSGIGNLFE | 0.7912 ± 0.0019
4 | SYHRAAPFQSCD | 0.8 ± 0.12
5 | CDRPERRRTHVY | 0.655 ± 0.041
6 | IGRRGINGLWGG | 0.627 ± 0.042
7 | GDIQRSNNFTIG | 0.779 ± 0.05
8 | ITMYAPEVDKRR | 0.709 ± 0.017
9 | IPPPLPPRAPLP | 0.672 ± 0.057
10 | QKKKEKKQKEGD | 0.678 ± 0.009
11 | HYRLPLPPASPA | 0.701 ± 0.052
12 | VLTFVWLVGQGF | 0.581 ± 0.048
13 | TLLTIALLTGNL | 0.606 ± 0.063
14 | SPHLPPLPDPSP | 0.576 ± 0.0069
15 | LSEFFLSAFLSC | 0.712 ± 0.011
16 | PTSSPAPPLFAF | 0.67 ± 0.028
17 | ECGAGRVYGDPW | 0.652 ± 0.063
18 | PPPPLPPQPPPP | 0.654 ± 0.0073
19 | PLPAPRHNALTT | 0.6137 ± 0.0045
20 | ACEAERRTFRWV | 0.66 ± 0.012
21 | SVCFPPCSSLPP | 0.71 ± 0.19
22 | MGQVMTKQQRKI | 0.668 ± 0.016
23 | LRLPPPLCPLRS | 0.623 ± 0.054
24 | SLSDYKAYSKTI | 0.65 ± 0.013
25 | RITVPIGYHSVS | 0.6891 ± 0.0009
26 | CAWRSVRLLIAH | 0.506 ± 0.068

Row | Sequence | protein stability index
27 | PPPPPPPPPQPS | 0.67 ± 0.08
28 | REWLGCYVFGVR | 0.677 ± 0.022
29 | GSSYDSEISRQS | 0.732 ± 0.0089
30 | QTQTAKEWAYHP | 0.686 ± 0.015
31 | SSRVSLSTVCLL | 0.585 ± 0.019
32 | CTVPGLTPKCIY | 0.581 ± 0.042
33 | VRLLAESWEGGR | 0.702 ± 0.017
34 | CGLRGAGCLARD | 0.637 ± 0.019
35 | KEARKREHKQTN | 0.67 ± 0.094
36 | NGKGECSLESSS | 0.677 ± 0.013
37 | GRGCRGKDWWLW | 0.74 ± 0.055
38 | PFLEPPYPLLRS | 0.704 ± 0.17
39 | LMLSGFGSFCVA | 0.659 ± 0.025
40 | PPISVIRKPTVL | 0.667 ± 0.066
41 | YKVKADRVRHRR | 0.692 ± 0.013
42 | SSPLPLPLHPPP | 0.7146 ± 0.0062
43 | AEFSLFRPHSAA | 0.649 ± 0.11
44 | LLWPVFQCLPLL | 0.729 ± 0.045
45 | PPLARLASPSRL | 0.7006 ± 0.0036
46 | GGIRGITSRQPP | 0.576 ± 0.019
47 | HVVLPPRYCISR | 0.696 ± 0.015
48 | IQDVGLKRLARV | 0.675 ± 0.061
49 | LQEQIHKPPKPQ | 0.72 ± 0.00088
50 | FPATLPPSYSLI | 0.643 ± 0.017
51 | ILVAPAYYCWKV | 0.642 ± 0.045
52 | LLSLRSPCSSSR | 0.697 ± 0.066

Row | Sequence | protein stability index
53 | RGSGEVVLFGVG | 0.671 ± 0.057
54 | IVFYWLAHRPCA | 0.6297 ± 0.0059
55 | PPPASRPPHPTL | 0.746 ± 0.026
56 | PLLSPLPSHPHP | 0.815 ± 0.058
57 | LSGLLGGGAGTL | 0.678 ± 0.013
58 | PTPHPHTGSLEG | 0.651 ± 0.011
59 | GYCLGVGLRLLH | 0.562 ± 0.018
60 | CVLRTSQPSCPG | 0.627 ± 0.023
61 | SRPRLSDLFPPP | 0.706 ± 0.11
62 | GDSKTKDEMYKI | 0.6867 ± 0.0045
63 | ATVDLDLLSTCL | 0.7 ± 0.02
64 | GEGRRYVVVTEG | 0.693 ± 0.035
65 | RINGPLHRLSVA | 0.657 ± 0.015
66 | SPLGPLGPPSET | 0.693 ± 0.052
67 | YSGRCGVKLFNG | 0.705 ± 0.073
68 | KCLCSKSGSWPC | 0.685 ± 0.0078
69 | LRSPSDSLALPL | 0.666 ± 0.028
70 | PDQPQPRPATNQ | 0.681 ± 0.022
71 | YCAMVSVGVVGG | 0.534 ± 0.0076
72 | FGFWCGWFAALP | 0.689 ± 0.0094
73 | GKKKIDDKGRWI | 0.678 ± 0.14
74 | PLPCSSLLVPLP | 0.627 ± 0.058
75 | VLLYAPLLPPLA | 0.622 ± 0.018
76 | IIRKYKARKKNK | 0.688 ± 0.041
77 | PPRPLRAEGLES | 0.727 ± 0.028
78 | NFTPRKHARQRP | 0.736 ± 0.0088

Row | Sequence | protein stability index
79 | SDVAGRCFFVVI | 0.589 ± 0.033
80 | RGLVIWRVGGMK | 0.66337 ± 0.00065
81 | GGGGGGGGCGVI | 0.77 ± 0.08
82 | GAFKSRAGGGSG | 0.621 ± 0.093
83 | GRSHVGGCGGEG | 0.693 ± 0.035
84 | AVGLGARHRVAW | 0.688 ± 0.016
85 | LSVVLARLCQGS | 0.6842 ± 0.0052
86 | RRGCTKYGSYII | 0.696 ± 0.082
87 | KKQEKKKNKNDR | 0.646 ± 0.028
88 | PPDLPVPRPSFR | 0.571
89 | RGFGGVLGRVFL | 0.725 ± 0.017
90 | FRPLWLPSGSAC | 0.611 ± 0.019
91 | GLSSPLPLALPV | 0.649 ± 0.023
92 | EVGVRCRVGVWV | 0.567 ± 0.029
93 | SLAGWPPPSIST | 0.686 ± 0.013
94 | FGIDVRPRPSQS | 0.698 ± 0.12
95 | PLSPPLPRPPPL | 0.649 ± 0.11
96 | KRYRLRVKIGNT | 0.5291 ± 0.0046
97 | TTSRADKEPFRL | 0.675 ± 0.027
98 | MGLRDPEWSGDI | 0.673 ± 0.018
99 | GVSWSWRGCCRR | 0.7109 ± 0.0058
100 | PSCDCFLLLAPR | 0.665 ± 0.055
101 | LPQAVPCRTPPL | 0.679 ± 0.054
102 | PTNISEKVGAKS | 0.671 ± 0.02
103 | YLFSTGSTLHSH | 0.818 ± 0.088
104 | AWDSVNDSDPPR | 0.717 ± 0.035

Row | Sequence | protein stability index
105 | THPRPTLTRCST | 0.734 ± 0.081
106 | RCTLFGMDQSSA | 0.642 ± 0.027
107 | TTYYTKPPRPKR | 0.69 ± 0.035
108 | AGAWGREVVGWG | 0.708 ± 0.033
109 | AWSVRVGGSATA | 0.695 ± 0.033
110 | EWGAGGGVWGLG | 0.7684 ± 0.0069
111 | ARPVSRWCEASY | 0.645 ± 0.025
112 | PAACLSLPPPPS | 0.706 ± 0.031
113 | TLFLFVSSFCMG | 0.47 ± 0.067
114 | GGGIGWRAGEFG | 0.673 ± 0.0016
115 | LFWFVSLWGGFA | 0.529 ± 0.073
116 | VDPAPPRRPPRY | 0.694 ± 0.097
117 | GISGGTVSILGV | 0.704 ± 0.0096
118 | SHIAIEKLHSKN | 0.709 ± 0.056
119 | GWSCGGVGGGLG | 0.71 ± 0.04
120 | VGRESVVGEQFV | 0.625 ± 0.025
121 | GLCGVCVLKFPR | 0.759 ± 0.15
122 | VRALGRDGIRQC | 0.602 ± 0.015
123 | PKYKKKNNKKKT | 0.709 ± 0.058
124 | RSPLPHPPPHSY | 0.612 ± 0.054
125 | PLPRPPSPPPAP | 0.68 ± 0.12
126 | LKPPEDPCASRV | 0.677 ± 0.021
127 | LPPPPSFTSPHL | 0.743 ± 0.12
128 | PHPPPPHPPPPP | 0.644 ± 0.027
129 | TRRAISPEGRWL | 0.645 ± 0.014
130 | KKTKKKRGEYKK | 0.714 ± 0.017

Row | Sequence | protein stability index
131 | GKRTVLFTRCRQ | 0.5888 ± 0.0055
132 | HPPPSLAASPPP | 0.544 ± 0.017
133 | SPSRPTPNTIGP | 0.615 ± 0.031
134 | QRPFRRRRVLCP | 0.561 ± 0.054
135 | LGRCSTLLYCGP | 0.669 ± 0.03
136 | RNLHVSMGKCSP | 0.722 ± 0.21
137 | SLLLMLPFPLPG | 0.618 ± 0.028
138 | SPSPLPTTPPTC | 0.641 ± 0.0077
139 | SYGPSGEFSFSF | 0.702 ± 0.0075
140 | TITRIAFRFCYS | 0.556 ± 0.032
141 | GGCAAGVGRLAV | 0.624 ± 0.075
142 | SLHSTPRPPAPG | 0.705 ± 0.063
143 | TIRKNKTDVISK | 0.667 ± 0.017
144 | VKEKKKDEKRKR | 0.747 ± 0.072
145 | LLRLLYVGVVGR | 0.573 ± 0.027
146 | IRLQKEGIKKIL | 0.699 ± 0.019
147 | WRGEMGGSGGQA | 0.713 ± 0.032
148 | SSPSPSPPHLHP | 0.712 ± 0.02
149 | VGGGLSLGGVWW | 0.691 ± 0.038
150 | APNAGPPTRSHR | 0.737 ± 0.086
151 | GGRCAERSDWCG | 0.647 ± 0.016
152 | GRKLLAGPDGDI | 0.658 ± 0.039
153 | RRDLKNVRLPDR | 0.675 ± 0.055
154 | VPFQEGHVKRFL | 0.665 ± 0.019
155 | LGRSGCRGGYVG | 0.622 ± 0.014
156 | SFSFLLSLSFLP | 0.529 ± 0.017

Row | Sequence | protein stability index
157 | NDFFVVFSVGEC | 0.613 ± 0.041
158 | KARMEKKRKIKL | 0.728 ± 0.073
159 | SIRTKVVRNVVS | 0.625 ± 0.087
160 | PFGDRSGLCVSV | 0.653 ± 0.017
161 | PPTPPTSHPSPR | 0.696 ± 0.027
162 | GGGGSAGAGGGG | 0.6221 ± 0.0061
163 | SSRPLISTLTPY | 0.661 ± 0.014
164 | CVIVCETYFQCA | 0.53 ± 0.0088
165 | RVVEPKWDWRRG | 0.68 ± 0.032
166 | SPPPLRFPPPPP | 0.763 ± 0.13
167 | AGAIWGGDSGVG | 0.607 ± 0.047
168 | CCRANWDFPIPS | 0.707 ± 0.027
169 | SRSCRHGELKFA | 0.718 ± 0.0097
170 | GVMTGGPPGGAG | 0.642 ± 0.04
171 | TNKNNKKKKEKI | 0.743 ± 0.049
172 | PSPPTLILPPHP | 0.663 ± 0.0095
173 | WCFSLGYFFFCR | 0.585 ± 0.05
174 | PRRRLVLDDRPT | 0.72823 ± 6.5e-05
175 | YLQESLVEMWIV | 0.65 ± 0.056
176 | VLHGGKLFGFVR | 0.676 ± 0.017
177 | CSSVGGYGGFEV | 0.616 ± 0.013
178 | WAGGSGRRIGCR | 0.712 ± 0.0089
179 | NPWYCVWYGAIT | 0.626 ± 0.068
180 | VGTFGAGGYAPD | 0.646 ± 0.078
181 | KKMKSKTKEINK | 0.698 ± 0.035
182 | RCWVTVIRSVRS | 0.601 ± 0.067

Row | Sequence | protein stability index
183 | SRHRVGLPIQIF | 0.526 ± 0.022
184 | IKKRTSNRENKD | 0.7 ± 0.025
185 | SGRPEGERAPEQ | 0.728 ± 0.06
186 | GGGVGCRSRGAG | 0.595 ± 0.025
187 | ARPLPPSLPPPP | 0.7356 ± 0.0046
188 | GVGRGGSSRWLG | 0.646 ± 0.06
189 | SYFVSGADSLIL | 0.635 ± 0.017
190 | PRNTPPRRAPTR | 0.6485 ± 0.0031
191 | MGGRAEGWVPVP | 0.68 ± 0.15
192 | GCLRLCYQHWSP | 0.6764 ± 0.005
193 | GSGVGSRARRGR | 0.695 ± 0.02
194 | NPPSRLPRLPLH | 0.728 ± 0.043
195 | CAVVSRYQPLSL | 0.7092 ± 0.006
196 | ERMLHGTATSVW | 0.736 ± 0.046
197 | RKGNHAHEPSCI | 0.686 ± 0.0034
198 | GGRCGSVGRGGA | 0.735 ± 0.065
199 | RGCGGGTGDGRG | 0.697 ± 0.045
200 | SPPPLCCPPLAP | 0.728 ± 0.023
201 | LTRSIKVWRAMR | 0.686 ± 0.018
202 | RRFPYGPFDFSI | 0.6645 ± 0.0049
